Laboratory results reported in US20050153287A1, “Nr3b nmda receptor subunit compositions and related methods” (priority 2001, published 2005).

How the values were obtained:
Format in all cases: cell-based
[1] = system: AMPA receptor (GluR2-(R586Q)); assay: Kainate-induced AMPA receptor current in transfected HEK293 cells; conditions: coexpression of NR3B with GluR2-(R586Q) in HEK293 cells
Description: (§1) To express the receptors in HEK293 cells, the cells were transfected with 1 μg of each plasmid unless otherwise stated (Shi et al., 1999). The NR1 and NR2A were tagged with green fluorescent protein (GFP) on the extracellular domain to facilitate the identification of transfected cells. […] NMDA receptor mediated current was recorded in the presence of 10 μM glycine. AMPA receptor current was recorded as described (Shi et al., 1999). Pipette solutions contained (in mM) Cs-methanesulfonate 110; CsCl 30; NaCl 4; HEPES 10; EGTA 5; CaCl2 0.5 adjusted to pH 7.3 with CsOH. 1 mM glutamate (for NMDA receptor) or kainate (for AMPA receptor) was pressure (1.0 PSI) applied through a puffer pipette positioned ˜10 μm to the cells. A program based on Igor (WaveMetrics, Inc., Lake Oswego, Oreg.) was used to acquire data on a Macintosh computer.

[2] = system: NMDA receptor (NR1 and NR2A); assay: Glutamate-induced whole-cell current in transfected HEK293 cells
Description: as §1

[3] = system: NR1 and NR2A tagged with GFP; assay: Expression levels of GFP-tagged NR1 and NR2A by fluorescence intensity; conditions: presence or absence of NR3B; NR1 and NR2A individually expressed with NR3B
Description: as §1
The electrophysiological properties of NR3B were tested by expressing NR3B in HEK293 cells. A conventional NMDA receptor channel is formed by a heteromeric combination of NR1, which is a key subunit for functionality, and at least one NR2 subunit, which is modulatory (Dingledine et al., 1999). […] NR1 and NR2A tagged with GFP were individually expressed with NR3B and their expression levels were measured by the fluorescence intensity. The statistical significance in this figure was assessed by Kolmogorov-Smirnov test. […]

B1: NR3B: mouse NR3B NMDA receptor subunit polypeptide (SEQ ID NO: 2), expressed from cDNA plasmid in HEK293 cells (protein, listed as Mus musculus)
chain: MECVQTLWLSLALALARGSWVVRGHPQPCGVPTRAGASVRLAALLPRAPAARARVLAALATPSPRLPHNLSLELVAVASPTRDPASLARGLCQVLAPPGVVASITFPEARPELRLLQFLAAATETPVLSVLRREVRAPLGAPTPFHLQLDWASPLETILDVLVSLVRAHAWEDIALVLCRVRDPSGLVTLWTSRASQAPKFVLDLSQLDSGNDSLRATLALLGTLEGGGTPVSAAVLLGCSTAHAHEVLEAAPPGPQWLLGTPLPAEALPKTGLPPGVLVLGETGQPSLEAAVHDMVELVARALSSMALMHPERALLPAAVNCEDLKTGGSESTARTLARFLSNTSFQGRTGAVWVAGSSQVHVSRHFKVWSLRRDPLGAPAWATVGSWQDGQLDFQPGAAALRVPSPSGTQARPKLRVVTLVEHPFVFTRESDEDGQCPAGQLCLDPGTNDSARLDALFTALENGSVPRTLRRCCYGYCIDLLERLAEDLAFDFELYIVGDGKYGALRDGRWTGLVGDLLAGRAHMAVTSFSINSARSQVVDFTSPFFSTSLGIMVRTRDTASPIGAFMWPLHWSMWVGVFAALHLTALFLTLYEWRSPYGLTPRGRNRGTVFSYSSALNLCYAILFGRTVSSKTPKCPTGRFLMNLWAIFCLLVLSSYTANLAAVMVGDKTFEELSGIHDPKLHHPSQGFRFGTVWESSAEAYIKASFPEMHAHMRRHSAPTTPHGVAMLTSDPPKLNAFIMDKSLLDYEVSIDADCKLLTVGKPFAIEGYGIGLPQNSPLTSNLSEFISRYKSSGFIDLLHDKWYKMVPCGKRVFAVTETLQMGVYHLSGLFVLLCLGLGSALLTSLGEHVFYRLVLPRIRRGNKLQYWLHTSQKIHRALNTGPPEGQQERAEQECSGPKEEQPAADGAGRWRRVRRAVVERERRVRFLLEPGEAGGDHPWLCSNGPGVQAELRELELRIEAARERLRSALLRRGELRAQLGDGTRLRPLRLLHAAPAES
- AMPA receptor mediated current [1]: unchanged
- glutamate-induced whole-cell current ([2]; NR3B coexpressed with NR1 and NR2A in HEK293 cells, compared with NR1 and NR2A alone): markedly depressed
- formation of electrophysiologically functional channels ([2]; NR3B coexpressed with NR1 only (n=6)): did not result in electrophysiologically functional channels
- formation of electrophysiologically functional channels ([2]; NR3B coexpressed with NR2A only (n=5)): did not result in electrophysiologically functional channels
- current amplitude with increasing amount of NR3B plasmid ([2]; NR3B plasmid 0, 1 and 3 μg versus other subunits (each 1 μg), +60 mV, Mg2+-free solution): concomitant decrease in current amplitude
- sensitivity of the remaining current to Mg2+ block ([2]; NR3B with NR1 and NR2A, presence or absence of 1 mM Mg2+): not affected
- formation of electrophysiologically functional channels ([2]; expression of NR3B alone in HEK293 cells (n=6)): did not result in electrophysiologically functional channels
- expression levels of NR1 and NR2A (GFP fluorescence) [3]: did not show any significant difference
